One test addresses Cyno Monkey (HEK). Briefly: binding affinity.
The target of another test is Mouse (NSO). As to the kind of experiment: binding affinity.
For another test, the target named is mouse IL-25 (NS0). As to the kind of experiment: SPR.
For test [1], the target named is T1, recombinant human IL-25 (R&D Systems) (human, UniProt Q9H293 33-177).
T1 chain: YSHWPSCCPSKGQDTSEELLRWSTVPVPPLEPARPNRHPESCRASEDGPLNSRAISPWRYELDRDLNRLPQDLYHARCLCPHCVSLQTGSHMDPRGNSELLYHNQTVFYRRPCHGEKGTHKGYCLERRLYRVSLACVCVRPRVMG
As to the kind of experiment: SPR.

For test [2], the target named is T1, recombinant human IL-25 (R&D Systems). Briefly: binding affinity.
The next test has as its target ABM126.4. As to the kind of experiment: binding affinity.
The target in a further test is ABM126. Briefly: binding affinity.
For another test, the target named is ABM109.2. As to the kind of experiment: binding affinity.
The target of a further test is hABM125.10. Briefly: SPR.
In a further test the target is hABM125.9. Briefly: SPR. On the technique in general: In SPR one partner is held on a chip, and binding of the other changes the refractive index at the surface.
In the next test the target is ABM 109. Briefly: SPR.
In a further test the target is ABM 109.2. Briefly: SPR.

Experimental findings from patent publication US20240400671A1 (published 2024) are described below.

B1: ABM125 (antibody, V domains shown)
VH: QVTLKVSGPGILQPSQTLSLTCSFSGFSLNTSGMGVGWIRQPSGKGLEWLAHIWWDDVKRYNPALKSRLTISKDTSGSQVFLKIASVDTADTATYYCARTLPHFFDYWGQGTTLTVSS
VL: DIQMTQSPAIMSASPGEKVTISCRASSSVSYMYWYQQKSGSSPKPWIYRTSNLASGVPARFSGSGSGTSYSLTISSMEAEDAATYYCKQYHSYPPTWTFGGGTKLEIKR
modifications: N-glycosylation site in heavy chain CDR1 created by S29N, confirmed biophysically
Usually Kd stands for the free concentration of one partner at which half of the binding sites on the other are occupied at equilibrium, for simple one-to-one binding. For B1, the figures for the Kd in the test with Cyno Monkey (HEK), in the test with Mouse (NSO) and with mouse IL-25 (NS0) were 0.17 nM, 0.168 nM and 0.0073 nM, respectively.

B2: ABM125 (Chimera) (antibody, V domains shown)
VH: B1 VH
VL: B1 VL
modifications: N-glycosylation site in heavy chain CDR1 created by S29N, confirmed biophysically
On to B2, for which the Kd is 0.0053 nM in test [1] and 0.128 nM in test [2].

B3: ABM125.38 (antibody, V domains shown)
VH: QVTLKESGPTLVKPTQTLTLTCTFSGFSLSTSGMGVGWIRQPPGKALEWLAHIWWDDVKRYNPSLKSRLTITKDTSGSQVVLTMTNMDPVDTATYYCARTLPHFHDYWGQGTTLTVSS
VL: DIQMTQSPSTLSASVGDRVTITCRASSSVSYMYWYQQKPGKAPKPLIYRTSNLASGVPSRFSGSGSGTEYTLTISSLQPDDFATYYCKQYHSYPPTWTFGGGTKVEIKR
B3: the dissociation constant (Kd) with Cyno Monkey (HEK) turned out to be 0.235 nM; with Mouse (NSO), 0.096 nM.

B4: LNR125.38 (antibody, V domains shown)
VH: B3 VH
VL: B3 VL
Turning to B4, in [2], the Kd stood at 0.051 nM.

B5: Human (HEK) (ligand)
chain: T1 chain
For the molecule B5, the dissociation constant (Kd) in the test with ABM126.4 was 0.024 nM; in the test with ABM126, 0.043 nM; with ABM109.2, 1 nM.

B6: human IL-25 (HEK) (ligand)
chain: T1 chain
On to B6, for which the values for the equilibrium dissociation constant (Kd) with hABM125.10 and with hABM125.9 were 0.374 nM and 0.061 nM, respectively.

B7: human IL-25 (ligand)
chain: T1 chain
With B7, the Kd with ABM 109 amounted to 0.004 nM; with ABM 109.2, 0.024 nM.
